Experiment: Retention on affinity column grafted with glutathione (GSH) after thrombin cutting
Assay type: binding
Details: after cutting GST-NBF1 with thrombin; coelutes with GST
Experimental: The suspension was centrifuged at 17,000 rpm for 40 minutes, and at 4° C., on a JA20 rotor (Beckman). The supernatant was incubated with 5 ml of a glutathione support (G4B Pharmacia) at ambient temperature for 30 minutes. The column was filled. The fusion protein was eluted with a 10 mM glutathione, 50 mM Tris, pH 8, solution at a flow rate of 0.05 ml/min. The fractions absorbing at 280 nm were collected and applied in portions of 500 μl to an ion exchange column (MonoQ, Pharmacia). The column was eluted with a 150 mM solution of NaCl and a 42 kD protein was identified on an SDS-PAGE gel and then confirmed by mass spectroscopy. The production yields of soluble fusion protein are 5 mg/l of culture.
Following purification, the fusion protein sample was dialyzed against a buffer (150 mM NaCl, 2.5 mM CaCl2, 50 mM Tris/HC1) at pH=8. Human thrombin (T7009, Sigma) was added to give a final concentration of 5u per mg of fusion protein. The mixture was incubated at ambient temperature for 30 minutes. The products of the cutting reaction were characterized on an SDS-PAGE gel and a protein having a molecular weight of 18 kD (corresponding to the expected molecular weight of NBF1) was observed.
The GST-NBF1 fusion protein is efficiently recognized by an anti-NBF1 antibody (MATG 1061, distributed by Transgene). The affinity of this recombinant protein for ATP was verified. […]

B1: NBF1: Recombinant NBF1 domain of the CFTR protein (sequence R450-I586), 18 kD, released from GST fusion by thrombin (protein, UniProt P13569 450-586, looked up, fragment)
chain: RGQLLAVAGSTGAGKTSLLMVIMGELEPSEGKIKHSGRISFCSQFSWIMPGTIKENIIFGVSYDEYRYRSVIKACQLEEDISKFAEKDNIVLGEGGITLSGGQRARISLARAVYKDADLYLLDSPFGYLDVLTEKEI
  behaviour on column of immobilized GSH: retained on the GSH column
